These binders were tested against HLA-DPB1*0101 (human (endogenous in VAVY)) (assay: radioligand binding).

Row | Binder | other
1 | EKKYFAATCFEPLAA [… Q9C] | 1.8
2 | EKKYFYATQFEPLAA [… A6Y] | 6
3 | EKKYFPATQFEPLAA [… A6P] | 0.18
4 | EKKYFTATQFEPLAA [… A6T] | 2.1
5 | EKKDFAATQFEPLAA [… Y4D] | 2
6 | EKKYFAANQFEPLAA [… T8N] | 3.4
7 | EKKYFAATRFEPLAA [… Q9R] | 1.8
8 | EKKYFAATPFEPLAA [… Q9P] | 1
9 | EKKYFAADQFEPLAA [… T8D] | 0.2
10 | EKKYFFATQFEPLAA [… A6F] | 2.1
11 | EKKAFAATQFEPLAA [… Y4A] | 0.066
12 | EKKYFAATHFEPLAA [… Q9H] | 1
13 | EKKQFAATQFEPLAA [… Y4Q] | 1

Each binder was assayed against HLA-DPB1*0201 (human (endogenous in JY)) (assay: radioligand binding).

Row | Binder | other
14 | EKKYFIATQFEPLAA [… A6I] | 0.89
15 | EKKYFDATQFEPLAA [… A6D] | 0.36
16 | EKKYFAATQFIPLAA [… E11I] | 1.8
17 | EKKYFTATQFEPLAA [… A6T] | 1
18 | EKKYFCATQFEPLAA [… A6C] | 0.38
19 | EKKYFEATQFEPLAA [… A6E] | 0.41
20 | EKKAFAATQFEPLAA [… Y4A] | 0.2
21 | EKKYFAATSFEPLAA [… Q9S] | 2
22 | EKKQFAATQFEPLAA [… Y4Q] | 1.8
23 | EKKYFAATQFLPLAA [… E11L] | 2

Each binder was assayed against HLA-DPB1*0501 (human (endogenous in HO301)) (assay: radioligand binding).

Row | Binder | other
24 | EKKYFAATQFNPLAA [… E11N] | 0.36
25 | EKKYFAATQFWPLAA [… E11W] | 0.13
26 | EKKYFKATQFEPLAA [… A6K] | 1.8
27 | EKKYFDATQFEPLAA [… A6D] | 0.13
28 | EKKYFAATFFEPLAA [… Q9F] | 13
29 | EKKYFAATQFIPLAA [… E11I] | 2.1
30 | EKKYFYATQFEPLAA [… A6Y] | 2.1
31 | EKKYFAATVFEPLAA [… Q9V] | 3.4
32 | EKKYFAATQFRPLAA [… E11R] | 1
33 | EKKYFAAWQFEPLAA [… T8W] | 0.13
34 | EKKYFAATQFQPLAA [… E11Q] | 1
35 | EKKYFAATAFEPLAA [… Q9A] | 1
36 | EKKYFAAYQFEPLAA [… T8Y] | 0.2
37 | EKKYFAATQFVPLAA [… E11V] | 2
38 | EKKYFAATKFEPLAA [… Q9K] | 0.95
